Measured values from patent US20240216536.

Experiments:
[1] = biological target: T1, His-S5A substrate (E6AP Ubiquitin Ligase Kit-S5a Substrate, Boston Biochem #K-230), P55036
T1 chain: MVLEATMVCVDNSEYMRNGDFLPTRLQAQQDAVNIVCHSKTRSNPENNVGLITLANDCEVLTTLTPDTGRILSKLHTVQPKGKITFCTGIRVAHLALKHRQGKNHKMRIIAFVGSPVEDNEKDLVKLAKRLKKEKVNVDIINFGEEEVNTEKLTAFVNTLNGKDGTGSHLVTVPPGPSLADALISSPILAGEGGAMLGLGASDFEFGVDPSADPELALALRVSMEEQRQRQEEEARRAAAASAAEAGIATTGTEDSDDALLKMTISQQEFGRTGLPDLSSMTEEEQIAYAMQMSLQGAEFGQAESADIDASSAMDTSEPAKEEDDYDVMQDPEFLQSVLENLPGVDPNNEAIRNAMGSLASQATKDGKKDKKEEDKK

B1: rat UBE3A protein (endogenous, from wild type rat cerebrospinal fluid and hippocampal dialysate) (protein)
chain: MATACKRSSGESQSEDIEASRMKRAAAKHLIERYYHQLTEGCGNEACTNEFCASCPTFLRMDNNAAAIKALELYKINAKLCDPHPSKKGASSAYLENSKGASNNSEIKMNKKEEFKEVDYLTEEKVYEIYEFCREREDYSPLIRVIGRIFSSAEALVQSFRKVKQHTKEELKSLQEKDEDKDEDEKEKAACSAAAMEEDSEASSSRMGDSSQGDNNVQKLGPDDVTVDIDAIRRVYSSLLSDEKIETAFLNALVYLSPNVECDLTYHNVYTRDPNYLNLFIIVMENRNLHSPEYLEMALPLFCKAMSKLPLAAQGKLIRLWSKYSADQIRRMMETFQQLITYKVISNEFNSRNLVNDDDAIVAASKCLKMVYYANVVGGDVDTNHNEEDDEEPIPESSELTLQELLGEERRNKKGPRVDPLETEIGVKTLDCRKPLISFEEFINEPLNDVLEMDKDYTFFKVETENKFSFMTCPFILNAVTKNLGLYYDNRIRMYSERRITVLYSLVQGQQLNPYLRLKVRRDHIIDDALVRLEMIAMENPADLKKQLYVEFEGEQGVDEGGVSKEFFQLVVEEIFNPDIGMFTYDEATRLFWFNPSSFETEGQFTLIGIVLGLAIYNNCILDVHFPMVVYRKLMGKKGTFCDLGDSHPILYQSLKDLLEYEGNVEDDMMITFQISQTDLFGNPMMYDLKENGDKIPITNENRKEFVSLYSDYILNKSVEKQFKAFRRGFHMVTNESPLKYLFRPEEIELLICGSRNLDFQALEETTEYDGGYTRESVVIREFWEIVHSFTDEQKRLFLQFTTGTDRAPVGGLGKLKMIIAKNGPDTERLPTSHTCFNVLLLPEYSSKEKLKERLLKAITYAKGFGML
- ubiquitination assay western blot (self-ubiquitination of UBE3A): the UBE3A protein present in both the CSF and hippocampal dialysate were active in ubiquitinating both the S5A substrate and UBE3A
- ubiquitination assay western blot (S5A band shift over time) [1]: the UBE3A protein present in both the CSF and hippocampal dialysate were active in ubiquitinating both the S5A substrate and UBE3A
- ubiquitination assay western blot after immuno-depletion of UBE3A (S5A band intensity) [1]: With UBE3A protein immuno-precipitated, UBE3A protein was not detected and the S5A band intensity remained unchanged over time
